Patent publication US20240247080A1, “GLP1/GIP/NPY2 RECEPTOR TRIPLE AGONISTS” (Boehringer Ingelheim International GmbH, priority 2022, published 2024)
Read-outs that look alike come from different tables or passages of the source. Starred links: 1 amine or outer side, 2 acyl side, 3 side chain; linkers in the order of their positions; H or OH if unused. Non-standard residues stand in square brackets, D forms with d. Groups on a side chain read outwards from the residue. No end group written: not given here. *: point of attachment. C20 diacid = O=C(O)CCCCCCCCCCCCCCCCCCC(=O)*; C18 diacid = O=C(O)CCCCCCCCCCCCCCCCC(=O)*; γGlu = O=C(O)[C@H](CCC(=O)[*:2])N[*:1]; AEEA = NCCOCCOCC(=O)O; Aib = CC(C)(N)C(=O)O; Ahx = NCCCCCC(=O)O; OEG = OEG spacer

What was measured:
hGLP1R = target: T1, hGLP1R (Homo sapiens, UniProt P43220); experiment: hGLP1R CreLuc reporter gene assay in 0.5% and 100% plasma; type: cell-based; conditions: CreLuc reporter gene assay, 0.5% human plasma; read-out: hGLP1R 0.5% hP
T1 construct: expressed in transfected cells; host or cells: HEK-293 cells carrying a CRE-luciferase reporter gene
Procedure, shortened: (§1)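 HEK cells (GLP-1R, NPY2R) or CHO cells (GIPR) carrying a CRE-luciferase reporter, incubated 4 h at 37 °C with peptides in HBSS/20 mM HEPES pH 7.4 plus 0.5% human plasma, or in 100% plasma. Luminescence read; EC50 from 8-point variable-slope sigmoid fits.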

hGIPR = target: T2, hGIPR (Homo sapiens, UniProt P48546); experiment: hGIPR CreLuc reporter gene assay in 0.5% and 100% plasma; type: cell-based; conditions: CreLuc reporter gene assay
T2 construct: expressed in transfected cells; host or cells: CHO cells carrying a CRE-luciferase reporter gene
T2 sequence (P48546 22-466): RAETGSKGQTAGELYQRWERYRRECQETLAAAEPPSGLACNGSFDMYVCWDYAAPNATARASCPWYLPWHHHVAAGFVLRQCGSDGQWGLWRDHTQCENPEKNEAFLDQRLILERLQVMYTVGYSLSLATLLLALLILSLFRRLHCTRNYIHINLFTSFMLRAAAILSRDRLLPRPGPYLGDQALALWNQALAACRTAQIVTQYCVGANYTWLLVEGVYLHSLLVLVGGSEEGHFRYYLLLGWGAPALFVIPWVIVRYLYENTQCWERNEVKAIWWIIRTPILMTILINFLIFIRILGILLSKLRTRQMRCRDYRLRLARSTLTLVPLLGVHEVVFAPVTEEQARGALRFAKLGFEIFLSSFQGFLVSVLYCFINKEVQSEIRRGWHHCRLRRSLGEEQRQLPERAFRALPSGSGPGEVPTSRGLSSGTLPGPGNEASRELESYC
Procedure, shortened: as §1

hNPY2R = target: T3, hNPY2R (Homo sapiens, UniProt P49146); experiment: hNPY2R CreLuc reporter gene assay in 0.5% and 100% plasma; type: cell-based; conditions: CreLuc reporter gene assay
T3 construct: expressed in transfected cells; host or cells: HEK-293 cells carrying a CRE-luciferase reporter gene
T3 sequence (P49146 1-381): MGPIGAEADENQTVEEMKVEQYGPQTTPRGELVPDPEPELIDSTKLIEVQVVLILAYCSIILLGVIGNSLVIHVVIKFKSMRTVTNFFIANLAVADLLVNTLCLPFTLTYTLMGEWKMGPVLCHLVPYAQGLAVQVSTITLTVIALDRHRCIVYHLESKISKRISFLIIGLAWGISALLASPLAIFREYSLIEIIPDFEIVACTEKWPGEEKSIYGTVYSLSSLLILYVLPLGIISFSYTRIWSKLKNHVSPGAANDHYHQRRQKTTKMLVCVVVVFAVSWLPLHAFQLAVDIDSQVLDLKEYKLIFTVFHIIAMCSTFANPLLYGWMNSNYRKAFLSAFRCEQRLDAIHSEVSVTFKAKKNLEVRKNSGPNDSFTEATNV
Procedure, shortened: as §1

[1] = Mouse PK after intravenous application; type: in vivo; conditions: plasma, mean residence time, intravenous 30-60 nmol/kg, male NMRI mice
Protocol: Pharmacokinetic parameters of the peptides were determined after intravenous application to NMRI mice. Male NMRI mice were obtained from Janvier Laboratories (France) weighing 30 to 40 g. Mice were housed in standard cages with a 12:12 hour light:dark cycle and standard food and water access ad libitum. Each test peptide was dissolved in 50 mM phosphate buffer (pH 7.4)/3.5% mannitol. Intravenous application of 30-60 nmol/kg was performed via the tail vein. Serial blood samples from conscious mice were collected from the saphenous vein in EDTA-containing vials at different time points up to 56 hours post-dosing. Subsequently, plasma was prepared by centrifugation for 5 min at approximately 5000 rpm and stored at −20° C. until quantification of the peptide plasma levels by liquid chromatography mass spectrometry (LC-MS). Individual plasma concentration—time profiles were analysed by a non-compartmental approach and the resulting pharmacokinetic parameters were calculated.

human GLP-1 receptor = human GLP-1 receptor (human, UniProt P43220 24-463); experiment: cell-based or functional assay
human GIP receptor = target: T4, human GIP receptor (human, UniProt P48546 22-466); experiment: cell-based or functional assay
T4 sequence (looked up): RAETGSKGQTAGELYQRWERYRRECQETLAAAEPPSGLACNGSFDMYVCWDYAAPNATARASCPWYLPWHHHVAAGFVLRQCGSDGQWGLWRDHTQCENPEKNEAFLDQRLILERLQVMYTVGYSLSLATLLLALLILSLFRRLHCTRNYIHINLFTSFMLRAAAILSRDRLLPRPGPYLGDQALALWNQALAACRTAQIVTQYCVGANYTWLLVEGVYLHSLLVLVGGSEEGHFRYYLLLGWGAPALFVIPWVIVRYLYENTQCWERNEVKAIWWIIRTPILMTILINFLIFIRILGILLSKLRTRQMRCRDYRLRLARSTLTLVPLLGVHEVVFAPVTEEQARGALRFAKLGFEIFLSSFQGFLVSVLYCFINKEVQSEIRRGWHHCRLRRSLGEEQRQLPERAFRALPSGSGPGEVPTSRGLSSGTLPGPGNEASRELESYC

[2] = target: T5, human neuropeptide Y2 receptor (human, UniProt P49146 1-381); experiment: cell-based or functional assay
T5 sequence (looked up): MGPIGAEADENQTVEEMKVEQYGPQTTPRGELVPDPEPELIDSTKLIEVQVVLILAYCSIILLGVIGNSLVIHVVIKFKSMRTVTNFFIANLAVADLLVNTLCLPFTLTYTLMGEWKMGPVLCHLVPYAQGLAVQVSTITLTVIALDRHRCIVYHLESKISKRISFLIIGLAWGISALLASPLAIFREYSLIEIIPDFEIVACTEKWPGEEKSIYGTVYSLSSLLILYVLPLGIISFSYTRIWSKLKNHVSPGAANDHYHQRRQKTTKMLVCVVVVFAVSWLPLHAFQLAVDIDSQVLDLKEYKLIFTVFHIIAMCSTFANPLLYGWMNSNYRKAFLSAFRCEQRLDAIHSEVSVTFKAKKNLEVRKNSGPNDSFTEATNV

[3] = 0.5% human plasma, read-out: hGIPR 0.5% hP
[4] = 100% human plasma, read-out: hGIPR 100% hP

T1 sequence (P43220 24-463): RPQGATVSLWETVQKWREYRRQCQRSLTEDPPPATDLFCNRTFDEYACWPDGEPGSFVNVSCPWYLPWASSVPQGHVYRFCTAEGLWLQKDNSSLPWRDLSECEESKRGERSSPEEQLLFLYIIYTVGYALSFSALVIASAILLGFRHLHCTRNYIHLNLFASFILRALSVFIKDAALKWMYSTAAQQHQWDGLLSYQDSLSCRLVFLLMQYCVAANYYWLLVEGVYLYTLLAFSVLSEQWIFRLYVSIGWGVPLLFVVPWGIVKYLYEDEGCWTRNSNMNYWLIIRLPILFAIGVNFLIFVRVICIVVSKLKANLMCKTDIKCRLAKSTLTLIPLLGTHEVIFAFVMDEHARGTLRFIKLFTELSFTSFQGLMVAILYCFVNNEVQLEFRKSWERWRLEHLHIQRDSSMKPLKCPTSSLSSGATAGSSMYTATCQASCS

Molecule	EC50 (hGLP1R)	EC50 (hGIPR; [3])	EC50 (hGIPR; [4])	EC50 (hNPY2R; 100% human plasma, read-out: hNPY2R 100% hP)	MRT [1]	EC50 (hNPY2R; 0.5% human plasma, read-out: hNPY2R 0.5% hP)	EC50 hGLP1R 0.5% hP (CreLuc) (human GLP-1 receptor)	EC50 hGLP1R 100% hP (CreLuc) (human GLP-1 receptor)	EC50 hGIPR 0.5% hP (CreLuc) (human GIP receptor)	EC50 hGIPR 100% hP (CreLuc) (human GIP receptor)	EC50 hNPY2R 0.5% hP (CreLuc) [2]	EC50 hNPY2R 100% hP (CreLuc) [2]
CC[C@H](C)[C@H](NC(=O)[C@H](CC(C)C)NC(=O)[C@H](Cc1c[nH]c2ccccc12)NC(=O)[C@H](CCC(=O)O)NC(=O)[C@@H](NC(=O)[C@H](Cc1ccccc1)NC(=O)[C@H](C)NC(=O)C(C)(C)NC(=O)[C@H](CCC(N)=O)NC(=O)[C@H](C)NC(=O)[C@H](CCC(N)=O)NC(=O)[C@H](CCCCN)NC(=O)[C@H](CCC(=O)O)NC(=O)[C@H](CC(C)C)NC(=O)C(C)(C)NC(=O)[C@@H](NC(=O)[C@H](CO)NC(=O)[C@H](Cc1ccc(O)cc1)NC(=O)[C@H](CC(=O)O)NC(=O)[C@H](CO)NC(=O)[C@@H](NC(=O)[C@H](Cc1ccccc1)NC(=O)[C@@H](NC(=O)CNC(=O)[C@H](CCC(=O)O)NC(=O)C(C)(C)NC(=O)[C@@H](N)Cc1ccc(O)cc1)[C@@H](C)O)[C@@H](C)O)[C@@H](C)CC)C(C)C)C(=O)N[C@@H](CCCCNC(=O)[C@@H](N)CCCCNC(=O)CC[C@H](NC(=O)CC[C@H](NC(=O)CC[C@H](NC(=O)CC[C@H](NC(=O)CC[C@H](NC(=O)CC[C@H](NC(=O)CCCCCCCCCCCCCCCCCCC(=O)O)C(=O)O)C(=O)O)C(=O)O)C(=O)O)C(=O)O)C(=O)O)C(=O)NCC(=O)NCC(=O)N1CCC[C@H]1C(=O)N[C@@H](CO)C(=O)N[C@@H](CO)C(=O)NCC(=O)N[C@H](C(=O)N[C@@H](CO)C(=O)N[C@H](C(=O)N[C@@H](CCCNC(=N)N)C(=O)N[C@@H](Cc1c[nH]cn1)C(=O)N[C@@H](Cc1ccc(O)cc1)C(=O)N[C@@H](Cc1ccc(O)cc1)C(=O)N[C@@H](CC(N)=O)C(=O)N[C@@H](Cc1c[nH]c2ccccc12)C(=O)N[C@@H](CC(C)C)C(=O)N[C@H](C(=O)N[C@@H](CCCNC(=N)N)C(=O)N[C@@H](CCC(N)=O)C(=O)N[C@@H](CCCNC(=N)N)C(=O)N[C@@H](Cc1ccc(O)cc1)C(N)=O)[C@@H](C)O)[C@@H](C)CC)C(C)C [Compound 27, Y-Aib-E-G-T-F-T-S-D-Y-S-I-Aib-L-E-K-Q-A-Q-Aib-A-F-V-E-W-L-I-K(1,3)-GGPSSGVSIRHYYNWLTRQRY-NH2.C20DA-gGlu-gGlu-gGlu-gGlu-gGlu-gGlu-eLys(1,2)]	0.1 nM	0.17 nM	1.11 nM	21 nM	6.7 h	–	–	–	–	–	–	–
H-Y[Aib]EGTFTSDYSI[Aib]LEKQAQ[Aib]AFVQWLIK([Ahx-γGlu-γGlu-γGlu-γGlu-γGlu-γGlu-C18 diacid])GGPSSGASLRHYYNWLTRQRY-NH2 [Compound 139, Y-Aib-E-G-T-F-T-S-D-Y-S-I-Aib-L-E-K-Q-A-Q-Aib-A-F-V-Q-W-L-I-K(1,3)-GGPSSGASLRHYYNWLTRQRY-NH2.C18DA-gGlu-gGlu-gGlu-gGlu-gGlu-gGlu-AHX(1,2)]	0.07 nM	0.22 nM	1.04 nM	–	10 h	18.3 nM	–	–	–	–	–	–
Y[Aib]EGTFTSDYSI[Aib]LEKQAQ[Aib]AFVEWLIK([γGlu-γGlu-γGlu-γGlu-γGlu-γGlu-C20 diacid])GGPSEGASLRHYYNWLTRQRY-NH2 (also: TFA salt) [Compound 305]	–	–	–	–	–	–	0.29 nM	7.08 nM	0.65 nM	2.81 nM	18.2 nM	101 nM
Y[Aib]EGTFTSDYSI[Aib]LEKQAQ[Aib]AFVEWLIK([AEEA-AEEA-γGlu-γGlu-γGlu-C18 diacid])GGPSEGASLRHYYNWLTRQRY-NH2 (also: TFA salt) [Compound 299]	–	–	–	–	–	–	0.08 nM	2.97 nM	0.4 nM	0.71 nM	11 nM	31.6 nM
Y[Aib]EGTFTSDYSI[Aib]LEKQAQ[Aib]AFVEWLIK([OEG-OEG-Glu-Glu-Glu-C18 diacid])GGPSEGASLRHYYNWLTRQRY-NH2 (also: TFA salt) [Compound 298]	–	–	–	–	–	–	0.11 nM	5.22 nM	0.13 nM	1.27 nM	12.1 nM	66.5 nM
